For 4 molecules, interaction score results are on record in publication PMC10397247.

One experiment addresses T1, P12bHq.
T1 chain: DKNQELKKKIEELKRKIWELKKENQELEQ
Description: two-hybrid library CCNG1.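 Further: natural log of median RNA to DNA barcode read ratio; higher means stronger binding.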

The target in the next experiment is T2, P1bHq.
T2 chain: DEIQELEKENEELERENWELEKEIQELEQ
Briefly: two-hybrid library CCNG1.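 Further: natural log of median RNA to DNA barcode read ratio; higher means stronger binding.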

The target of a further experiment is T3, P2bHq.
T3 chain: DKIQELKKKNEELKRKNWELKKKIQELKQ
Description: two-hybrid library CCNG1.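 Further: natural log of median RNA to DNA barcode read ratio; higher means stronger binding.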

A further experiment has as its target T4, P3bHq.
T4 chain: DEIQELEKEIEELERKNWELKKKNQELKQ
Description: two-hybrid library CCNG1.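 Further: natural log of median RNA to DNA barcode read ratio; higher means stronger binding.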

In another experiment the target is T5, P4bHq.
T5 chain: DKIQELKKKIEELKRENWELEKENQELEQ
Briefly: two-hybrid library CCNG1.

In another experiment the target is T6, P5bHq.
T6 chain: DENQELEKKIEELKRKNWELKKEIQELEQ
Briefly: two-hybrid library CCNG1.

In a further experiment the target is T7, P6bHq.
T7 chain: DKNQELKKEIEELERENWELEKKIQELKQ
Description: two-hybrid library CCNG1.

Another experiment deals with T8, P7bHq.
T8 chain: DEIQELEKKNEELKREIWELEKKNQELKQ
Briefly: two-hybrid library CCNG1.

The target in the next experiment is T9, P8bHq.
T9 chain: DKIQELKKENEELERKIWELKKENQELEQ
Briefly: two-hybrid library CCNG1.

In the next experiment the target is T10, P9bHq.
T10 chain: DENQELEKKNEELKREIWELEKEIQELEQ
Briefly: two-hybrid library CCNG1.

A further experiment concerns the target T11, 4H1158-bA.
T11 chain: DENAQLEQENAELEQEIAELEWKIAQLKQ
Briefly: two-hybrid library CCNG1.

Another experiment deals with T12, 4H118-bA.
T12 chain: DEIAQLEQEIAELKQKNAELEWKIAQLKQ
Briefly: two-hybrid library CCNG1.

Another experiment concerns the target T13, 4H170-bA.
T13 chain: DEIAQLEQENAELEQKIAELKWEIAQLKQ
Description: two-hybrid library CCNG1.

A further experiment concerns the target T14, 4H1831-bA.
T14 chain: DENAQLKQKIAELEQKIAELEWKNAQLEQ
Briefly: two-hybrid library CCNG1.

In a further experiment the target is T15, 4H2253-bA.
T15 chain: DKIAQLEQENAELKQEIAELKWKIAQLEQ
Briefly: two-hybrid library CCNG1.

The target of a further experiment is T16, 4H2586-bA.
T16 chain: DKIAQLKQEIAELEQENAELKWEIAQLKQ
Briefly: two-hybrid library CCNG1.

A further experiment concerns the target T17, 4H2627-bA.
T17 chain: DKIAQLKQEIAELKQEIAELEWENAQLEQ
Briefly: two-hybrid library CCNG1.

Another experiment deals with T18, 4H2673-bA.
T18 chain: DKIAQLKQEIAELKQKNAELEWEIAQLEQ
Description: two-hybrid library CCNG1.

The next experiment addresses T19, 4H2702-bA.
T19 chain: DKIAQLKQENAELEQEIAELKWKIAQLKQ
Description: two-hybrid library CCNG1.

The target of a further experiment is T20, 4H3010-bA.
T20 chain: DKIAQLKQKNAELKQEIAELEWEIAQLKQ
Description: two-hybrid library CCNG1.

The next experiment deals with T21, 4H3112-bA.
T21 chain: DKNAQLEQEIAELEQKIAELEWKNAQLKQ
Description: two-hybrid library CCNG1.

The next experiment concerns the target T22, 4H3427-bA.
T22 chain: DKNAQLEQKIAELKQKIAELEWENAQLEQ
Briefly: two-hybrid library CCNG1.

Another experiment has as its target T23, 4H346-bA.
T23 chain: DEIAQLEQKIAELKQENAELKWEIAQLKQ
Briefly: two-hybrid library CCNG1.

The target of the next experiment is T24, 4H3926-bA.
T24 chain: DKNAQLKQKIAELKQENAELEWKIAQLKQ
Briefly: two-hybrid library CCNG1.

For a further experiment, the target named is T25, 4H4073-bA.
T25 chain: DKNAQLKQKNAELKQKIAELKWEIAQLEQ
Briefly: two-hybrid library CCNG1.

For another experiment, the target named is T26, 4H457-bA.
T26 chain: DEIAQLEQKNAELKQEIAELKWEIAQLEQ
Description: two-hybrid library CCNG1.

The target in the next experiment is T27, 4H575-bA.
T27 chain: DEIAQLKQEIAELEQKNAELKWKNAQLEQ
Description: two-hybrid library CCNG1.

The target in the next experiment is T28, 4H683-bA.
T28 chain: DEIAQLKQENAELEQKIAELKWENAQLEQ
Description: two-hybrid library CCNG1.

Another experiment deals with T29, 4H754-bA.
T29 chain: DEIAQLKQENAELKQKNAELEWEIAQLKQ
Briefly: two-hybrid library CCNG1.

For the next experiment, the target named is T30, 4H780-bA.
T30 chain: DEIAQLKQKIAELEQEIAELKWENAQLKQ
Briefly: two-hybrid library CCNG1.

Another experiment deals with T31, 4H797-bA.
T31 chain: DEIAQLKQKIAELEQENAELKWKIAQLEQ
Description: two-hybrid library CCNG1.

Another experiment concerns the target T32, 4H855-bA.
T32 chain: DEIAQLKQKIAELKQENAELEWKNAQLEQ
Briefly: two-hybrid library CCNG1.

The next experiment concerns the target T33, 4H918-bA.
T33 chain: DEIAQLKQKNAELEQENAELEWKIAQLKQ
Briefly: two-hybrid library CCNG1.

A further experiment concerns the target T34, 4H953-bA.
T34 chain: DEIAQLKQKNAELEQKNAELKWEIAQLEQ
Briefly: two-hybrid library CCNG1.

A further experiment concerns the target T35, 4H968-bA.
T35 chain: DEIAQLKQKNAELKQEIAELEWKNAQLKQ
Description: two-hybrid library CCNG1.

For the next experiment, the target named is T36, P2-AA-1HAA-D.
T36 chain: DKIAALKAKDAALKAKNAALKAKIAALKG
Description: two-hybrid library CCmax. Conditions: mean of both orientations.

The next experiment deals with T37, P2-AA-1HAA-E.
T37 chain: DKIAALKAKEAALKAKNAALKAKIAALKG
Briefly: two-hybrid library CCmax. Conditions: mean of both orientations.

The target in the next experiment is T38, P2-AA-1HAA-H.
T38 chain: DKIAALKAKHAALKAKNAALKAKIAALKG
Briefly: two-hybrid library CCmax. Conditions: mean of both orientations.

The next experiment concerns the target T39, P2-AA-1HAA-I.
T39 chain: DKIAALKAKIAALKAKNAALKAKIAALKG
Briefly: two-hybrid library CCmax. Conditions: mean of both orientations.

The next experiment addresses T40, P2-AA-1HAA-R.
T40 chain: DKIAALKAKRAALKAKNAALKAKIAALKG
Briefly: two-hybrid library CCmax. As to conditions: mean of both orientations.

The target in a further experiment is T41, P2-AA-1HAA-S.
T41 chain: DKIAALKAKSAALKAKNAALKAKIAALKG
Briefly: two-hybrid library CCmax. As to conditions: mean of both orientations.

In a further experiment the target is T42, P2-AA-1HAA-T.
T42 chain: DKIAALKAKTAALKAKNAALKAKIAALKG
Description: two-hybrid library CCmax. As to conditions: mean of both orientations.

A further experiment addresses T43, P2-AA-1HAA-V.
T43 chain: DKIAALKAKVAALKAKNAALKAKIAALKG
Briefly: two-hybrid library CCmax. As to conditions: mean of both orientations.

The next experiment has as its target T44, P2-AA.
T44 chain: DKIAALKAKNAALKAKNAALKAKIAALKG
Briefly: two-hybrid library CCmax. As to conditions: mean of both orientations.

Take DKNQELKKKIEELKRKIWELKKENQELEQ [P12bHq]: the interaction score in the experiment with P12bHq was -0.763; in the experiment with P1bHq it was -1.45; in the experiment with P2bHq it was -0.425; with P3bHq, -0.851; in the experiment with P4bHq, 0.195; with P5bHq, -0.597. The interaction score with P6bHq was 0.286; with P7bHq it was 0.639; with P8bHq it was -0.489; with P9bHq it was 1.15.
For DENAQLEQENAELEQEIAELEWKIAQLKQ [4H1158-bA], the interaction score with 4H1158-bA is -0.559; in the experiment with 4H118-bA it was 0.591; with 4H170-bA it was -1.67; in the experiment with 4H1831-bA, 0.132; with 4H2253-bA it was 0.12; in the experiment with 4H2586-bA, -0.706. The interaction score with 4H2627-bA was 1.15; in the experiment with 4H2673-bA, -0.0392; with 4H2702-bA, 0.584; in the experiment with 4H3010-bA it was 2.11; in the experiment with 4H3112-bA it was -0.0196; with 4H3427-bA it was 0.681. Also, the interaction score was -0.31 in the experiment with 4H346-bA; 0.769 with 4H3926-bA; 2.53 with 4H4073-bA; 1.02 with 4H457-bA; 0.324 with 4H575-bA; -1.19 with 4H683-bA. In addition, the interaction score with 4H754-bA was -0.283; with 4H780-bA, 0.459; with 4H797-bA, 0; in the experiment with 4H855-bA it was 0.0299; in the experiment with 4H918-bA, -0.069; with 4H953-bA it was -0.12. The molecule further gave an interaction score with 4H968-bA of 0.0766.
Consider DEIAALEAELAALEAENAALEAEIAALEG [P1-AA-1HAA-L], for which the interaction score turned out to be 1.71 in the experiment with P2-AA-1HAA-D; 1.89 in the experiment with P2-AA-1HAA-E; 1.95 in the experiment with P2-AA-1HAA-H; 1.62 in the experiment with P2-AA-1HAA-I; 1.98 with P2-AA-1HAA-R; 1.77 with P2-AA-1HAA-S. Besides, the interaction score in the experiment with P2-AA-1HAA-T turned out to be 1.93; in the experiment with P2-AA-1HAA-V it was 1.87; in the experiment with P2-AA it was 1.84.
With DEIAALEAETAALEAENAALEAEIAALEG [P1-AA-1HAA-T], the interaction score in the experiment with P2-AA-1HAA-D turned out to be 1.99; with P2-AA-1HAA-E it was 2.02; in the experiment with P2-AA-1HAA-H it was 2.07; with P2-AA-1HAA-I, 2.05; in the experiment with P2-AA-1HAA-R, 1.93; with P2-AA-1HAA-S it was 2.1. Further, the interaction score with P2-AA-1HAA-T was 1.69; with P2-AA-1HAA-V, 2.02; in the experiment with P2-AA, 1.88.
